The values that follow come from patent publication US20150231240A1, “ANTI-C16ORF54 ANTIBODIES AND METHODS OF USE THEREOF” (priority 2012, published 2015).

Test [1] deals with T1, cynomolgus monkey C16orf54 (cynomolgus monkey (Macaca fascicularis), UniProt Q6UWD8 1-224 (human entry)).
T1 construct: also called cyno C16orf54; cyno-C16orf54
T1 chain: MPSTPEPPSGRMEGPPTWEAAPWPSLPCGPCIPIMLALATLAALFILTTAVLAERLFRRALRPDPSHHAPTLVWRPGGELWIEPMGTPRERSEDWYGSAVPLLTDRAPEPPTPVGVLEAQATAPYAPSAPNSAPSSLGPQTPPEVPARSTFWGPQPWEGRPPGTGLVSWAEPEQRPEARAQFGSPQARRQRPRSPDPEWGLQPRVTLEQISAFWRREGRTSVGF
As to the kind of experiment: flow cytometry titration, F279-cyno-C16orf54 cells. As to the method: Anti-C16orf54 antibodies which bound to human C16orf54 were tested for their binding to cells expressing human C16orf54 and cells expressing cyno C16orf54. […] Median fluorescence intensities for each primary antibody concentration were used to derive a flow EC50/Kd using the one site-specific binding with Hill slope model in Prism (GraphPad Prism® Software). Results are shown as flow EC50 in Table 35.
For orientation: Flow cytometry measures light scatter and fluorescence of single cells or particles in a stream.

The target of test [2] is T2, human C16orf54 ECD fragment aa1-15 (human).
T2 peptide: MPLTPEPPSGRVEGP
Description: peptide ELISA, 2 ug/ml peptide coated, 10 ug/ml antibody. As to the method:
(§1) Anti-C16orf54 antibodies which bind to human C16orf54, including antibodies that are crossreactive with cyno C16orf54, were tested for their binding to various peptides derived from C16orf54 in a peptide ELISA. A 384-well high binding black microplate (Greiner) was incubated with 2 μg/ml of protein (human, cyno, or mouse extracellular domain peptides) for 16 hours, incubated for 1 hr with a blocking buffer (PBS with 5% Fetal Bovine Serum), washed four times with TBS with Tween, incubated for 1 hour with 10 μg/ml of anti-C16orf54 antibody, washed four times with TBS with Tween, incubated for 1 hour with 10 μg/ml of Peroxidase-AffiniPure Goat Anti-Mouse IgG, Fcγ Fragment Specific (Jackson ImmunoResearch), washed four times with TBS with Tween, and peroxidase was detected with a luminometer (Molecular Devices) upon addition of SuperSignal® ELISA Pico Chemiluminescent Substrate (Thermo Scientific). The luminescence signal was determined.
In general terms: An ELISA detects its analyte on a solid surface through an enzyme-linked reagent.

The target in test [3] is T3, human C16orf54 ECD fragment aa9-24 (human).
T3 peptide: SGRVEGPPAWEAAPWP
The description is as above. As for the experimental part: as §1

Test [4] has as its target T4, human C16orf54 (human, UniProt Q6UWD8 1-224).
T4 construct: also called huC16orf54; hC16orf54
T4 sequence: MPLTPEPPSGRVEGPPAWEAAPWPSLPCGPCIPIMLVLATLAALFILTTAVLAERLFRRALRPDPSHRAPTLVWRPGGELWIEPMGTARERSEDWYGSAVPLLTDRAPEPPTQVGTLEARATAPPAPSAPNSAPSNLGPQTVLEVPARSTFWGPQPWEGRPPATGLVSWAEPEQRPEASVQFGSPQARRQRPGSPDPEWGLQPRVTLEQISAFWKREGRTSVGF
As to the kind of experiment: flow cytometry, 10 ug/ml antibody, D42M1-huC16orf54 cells. As to the method: (§2) Anti-C16orf54 antibodies which bound to human C16orf54 were tested for their reactivity with human C16orf54 and their crossreactivity with C16orf54 from cynomolgous monkeys (cyno C16orf54) using flow cytometry. Sarcoma cells transfected with and expressing human C16orf54 or cyno C16orf54 were washed with PBS with 0.1% BSA, incubated with FcX receptor blocking solution (BioLegend) for 15 minutes, incubated with 10 μg/ml of anti-C16orf54 antibody for 1 hour at 4° C., washed twice with PBS with 0.1% BSA, incubated with 20 μg/ml of R-Phycoerythrin-AffiniPure F(ab′)2 Fragment Goat Anti-Mouse IgG, Fcγ Fragment Specific (Jackson ImmunoResearch) for 30 minutes at 4° C., washed twice with PBS with 0.1% BSA, incubated with the viability dye TO-PRO-3 iodide (Life Technologies), and immediately analyzed on a MACSQuant Analyzer instrument (Miltenyi). For each cell line and anti-C16orf54 antibody, a fold change was derived by dividing the median fluorescence intensity for Phycoerythrin in the live cell population for the anti-C16orf54 antibody by the median fluorescence intensity for Phycoerythrin in the live cell population for the IgG isotype control antibody. A number of anti-C16orf54 antibodies (see, e.g., R29-8-57B, R29-8-136C, R29-7-1C, R29-67-7A, R29-67-4A, and R29-7-2A) bind human C16orf54 and also bind (e.g., are crossreactive with) cyno C16orf54.

Test [5] deals with T1, cynomolgus monkey C16orf54. Description: flow cytometry, 10 ug/ml antibody, F279-cyno-C16orf54 cells. As to the method: as §2
Test [6] concerns the target T4, human C16orf54. As to the kind of experiment: flow cytometry titration, KG1 cells (endogenous human C16orf54).
Test [7] has as its target T5, Human C16-ECD peptide (aa1-31) (human).
T5 construct: Coated on plates in the peptide ELISA; also called human extracellular domain peptide
T5 peptide: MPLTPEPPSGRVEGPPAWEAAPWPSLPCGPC
Description: column head 'Full kinetics (nM)' in the table of the C16orf54 peptide binding assays; method and antigen not described; 3 runs.

The target in test [8] is T6, N-terminal 32 amino acids of huC16orf54 coupled to biotin (human, biotin at the C-terminus).
T6 construct: also called 32 amino acid N-terminal extracellular domain
T6 peptide: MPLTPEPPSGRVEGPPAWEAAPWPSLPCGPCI
Description: biolayer interferometry (OctetQK384), hybridoma supernatant on streptavidin sensors coated with the biotinylated peptide. As to the method:
Eight anti-huC16orf54 monoclonal antibodies were further screened for binding and subsequent off-rate analysis using the OctetQK384® sytem (ForteBio). Hybridoma supernatants were screened for association to and dissocation from streptavidin sensors coated with the N-terminal 32 amino acids of huC16orf54 coupled to biotin, and the calculated offrates (kdis) are shown in Table 31. Cloned hybridomas with […] off-rates were carried forward for antibody purification.
Background: Biolayer interferometry detects binding as a change in optical thickness at a sensor tip.

The target of test [9] is T5, Human C16-ECD peptide (aa1-31). Description: column head 'Full kinetics (nM)' in the table of the C16orf54 peptide binding assays; method and antigen not described; 1 run.
In test [10] the target is T7, Cyno C16-ECD peptide (aa1-31) (cynomolgus monkey).
T7 construct: Coated on plates in the peptide ELISA; also called cyno extracellular domain peptide; Cyno ECD
T7 peptide: T5 peptide with L3S, V12M, A17T
As to the kind of experiment: peptide ELISA, 2 ug/ml peptide coated, 10 ug/ml antibody; column 'Cyno ECD bound by antibody'. As to the method: as §1

Test [11] addresses T2, human C16orf54 ECD fragment aa1-15. Description: peptide ELISA, 2 ug/ml peptide coated, 10 ug/ml antibody; column 'Human ECD & ECD fragments bound by antibody'. As for the experimental part:
as §1

Test [12] addresses T3, human C16orf54 ECD fragment aa9-24. The description is as above. As to the method:
as §1

Test [13] concerns the target T5, Human C16-ECD peptide (aa1-31). Description: column head 'Full kinetics (nM)' in the table of the C16orf54 peptide binding assays; method and antigen not described; 2 runs; 2 runs, stdev 0.02.
In test [14] the target is T8, cynomolgus monkey C16orf54 (cynomolgus monkey (Macaca fascicularis)).
T8 sequence: T1 chain
Description: flow cytometry, 10 ug/ml antibody, F279-cyno-C16orf54 cells.

For test [15], the target named is T6, N-terminal 32 amino acids of huC16orf54 …. Description: biolayer interferometry (OctetQK384), purified antibody on streptavidin sensors coated with the biotinylated peptide. As to the method:
Affinity measurements of purified anti-huC16orf54 antibodies were carried out on the OctetQK384® sytem (ForteBio). After coating streptavidin sensors with the N-terminal 32 amino acids of huC16orf54 coupled to biotin at the C-terminus, association and dissociation of purified anti-huC16orf54 antibodies was monitored. KD values were derived using ForteBio's software.

Test [16] concerns the target T5, Human C16-ECD peptide (aa1-31). As to the kind of experiment: column head 'Full kinetics (nM)' in the table of the C16orf54 peptide binding assays; method and antigen not described; 4 runs.

Where a chain is given by its changes, count along the chain named.

B1: R29-8-57B (antibody, V domains shown)
VH: DVQLQESGPGLVKPSQSLSLTCTVTGYSITSDYAWNWIRQFPGNKLEWMGYINYSGSTRYNPSLKSRISITRDTSKNHFFLQLNSVTPEDTATYHCARERYDGVYYGMDYWGQGTSVTVSS
VL: DIVMSQSPSSLAVSVGEKVTMSCKSSQSLLYSSNQKNYLAWYQQKPGQSPKLLIYWASTRESGVPDRFTGSGSGTDFTLTISSVKTEDLAVYYCQQYYSYRTFGGGTKLEIK
notes: Murine monoclonal antibody from a hybridoma
What is called EC50 is the concentration needed to bring the measured effect to its halfway point. The Kd is the free concentration of one partner at which half of the binding sites on the other are occupied at equilibrium, for simple one-to-one binding. Turning to B1, the results for the EC50 in test [1] and in test [6] were 2.5 nM and 0.1 nM, respectively. The binding result in [2] and in test [3] was “binds” throughout. For the same molecule, the “Median fold change relative to IgG control” value in test [4] was found to be 204 fold; in [5], 62 fold. Moreover, in test [7], the dissociation constant Kd stood at 0.6 nM.

B2: R29-67-7A (antibody, V domains shown)
VH: DVQLQESGPGLVKPSQSLSLTCTVTGYSITSDYAWNWIRQFPGNKLEWMGYINYSGRTRYNPSLNSRISLTRDTSTNQFFLQLNSVTTEDTATYYCARENYDYEFYAMDYWGQGTSVTVSS
VL: B1 VL with S28N, T86A, S99I
notes: Murine monoclonal IgG2a from a hybridoma
A word on the koff: it is the first-order rate constant of dissociation. As to B2, the concentration for a half-maximal effect (EC50) in [1] was 3.7 nM; in [6] it was 7.3 nM. Also, the binding result in test [2] and in [3] was “binds” each time. Moreover, the “Median fold change relative to IgG control” value in test [4] is 140 fold; in [5], 35.6 fold. The same molecule gave a koff in test [8] of 0.00845 s⁻¹. The molecule also came in with an equilibrium dissociation constant (Kd) in test [9] of 2.51 nM.

B3: R29-8-136C (antibody, V domains shown)
VH: B1 VH with T58S
VL: B1 VL
notes: as for B1
With B3, the half-maximal effective concentration (EC50) in test [1] amounted to 2.5 nM; in [6], 0.2 nM. Also, the binding result in test [2] and in [3] was “binds” in each case. Moreover, the “Median fold change relative to IgG control” value is 202 fold in test [4] and 61.6 fold in [5]. In [7], this molecule displayed a Kd of 0.64 nM.

B4: R29-8-75B (antibody, V domains shown)
VH: DVQLVESGGGLVQPGGSRKLSCAASGFTFSRFGMHWVRQAPEKGLEWVAYISSGSSTIYYADTVKGRFTISRDNPKNTLFLQMTSLRSEDTAMYYCARVDYDVALAYWGQGTLVTVSA
VL: GVLMTQTPLSLPVSLGDQASISCRSSQSIVHRNGNTYLEWYLQKPGQSPKLLIYKVSNRFSGVPDRFSGSGSGTDFTLKISRVEAEDLGVYYCFQGSQWTFGGGTKLEIK
notes: as for B1
In the case of B4, the entries for the “Median fold change relative to IgG control” value in test [4] and in [5] were 148 fold and 7.8 fold, respectively. In test [6], this molecule returned a concentration for a half-maximal effect (EC50) of 6.5 nM. Further, the binding result in test [10], in [11] and in [12] was “binds” each time. In test [13], this molecule showed a Kd of 0.09 nM.

B5: R29-8-58C (antibody, V domains shown)
VH: EVKLVESGGGLVKPGGSLKFSCAASGFTFSSYAVSWVRQTPEKRLEWVASITSGGRSYYPDSVKGRFTISRDNARSMLYLHMSSLRSEDTAMYYCTRGWDENDLWGQGTTLTVSS
VL: DVVMTQTPLSLFVSLGDQASISCRSSQSLLYSNGNTYLHWYLQRPGQSPQLLIYKVSNRFSGVPDRFSGSGSGTDFTLKISRVEAEDLGVYFCSQTTHVPWTFGGGTKLEIK
notes: as for B1
As to B5, the Median fold change relative to IgG control is 1.4 fold in [14] and 184 fold in [4]. This molecule yielded an EC50 in test [6] of 0.6 nM.

B6: R29-7-2A (antibody, V domains shown)
VH: EVQLVESGGGLIQPKGSLKLSCVASGFSFNTHAMNWVRQAPGKGLEWVARIRSKSNNYARYYADSVKDRFTISRDDSQSILYLQMNNLKTEDTAMYYCVKQGDGGFAYWGQGTLVTVSA
VL: DIVMSQSPSSLAVSVGEKVTMSCKSSQSLLYSSNQKNYLAWYQQRPGQSPKLLIYWASARESGVPDRFTGSGSGTDFTLTISSVKAEDLAVYYCQQYYSYPPTFGAGTKVELK
notes: Murine monoclonal IgG2b from a hybridoma
By kon is commonly meant a measure of how fast the partners come together. Take B6: the EC50 in test [1] came to 2.7 nM; in [6] it was 1 nM. The “Median fold change relative to IgG control” value in [4] came to 267 fold; in [5], 78.5 fold. In addition, the binding result in [11] and in [12] was “binds” each time. The results for the Kd in test [15] and in test [16] were 1.3 nM and 1.01 nM, respectively. Further, the dissociation rate constant (koff) in test [15] was 4.12e-05 s⁻¹; in [8] it was 0.00707 s⁻¹. The molecule also had an on-rate constant (kon) in [15] of 31900 M⁻¹ s⁻¹.
